The values below come from patent publication US20240400696A1.

Numbering of substitutions follows the chain as printed.

One may read the Kd as a measure of binding affinity in units of concentration.

To fix the notation:
B1: AC3373 (bispecific antibody, V domains shown)
VH: EVQLLESGGGIVQPGGSLKLSCAASGFTFNTYAMNWVRQAPGKGLEWTARIRSKYNNYATYYADSVKDRFTISRDDSKNTVYLQMNNLKTEDTAVYYCVRHENFGNSYVSWFAHWGQGTLVTVSS
VL: ELVVTQEPSLTVSPGGTVTLTCRSSNGAVTSSNYANWVQQKPGQAPRGLIGGTNKRAPGTPARFSGSLLGGKAALTLSGVQPEDEAVYYCALWYPNLWVFGGGTKLTVL
B2: AC3377 (bispecific antibody, V domains shown)
VH: B1 VH with T48V, A49G
VL: B1 VL
B3: AC3400 (bispecific antibody, V domains shown)
VH: B1 VH with T48V, Y55G
VL: B1 VL
B4: AC3401 (bispecific antibody, V domains shown)
VH: B1 VH with T48V, Y55K
VL: B1 VL
B5: AC3396 (bispecific antibody, V domains shown)
VH: B1 VH with T48V, S53T
VL: B1 VL
B6: AC3383 (bispecific antibody, V domains shown)
VH: B1 VH with T48V, I51A
VL: B1 VL
B7: AC3398 (bispecific antibody, V domains shown)
VH: B1 VH with T48V, Y55A
VL: B1 VL
B8: AC3397 (bispecific antibody, V domains shown)
VH: B1 VH with T48V, K54P
VL: B1 VL
B9: AC3399 (bispecific antibody, V domains shown)
VH: B1 VH with T48V, Y55R
VL: B1 VL
B10: AC3385 (bispecific antibody, V domains shown)
VH: B1 VH with T48V, I51T
VL: B1 VL
B11: AC3389 (bispecific antibody, V domains shown)
VH: B1 VH with T48V, R52Q
VL: B1 VL
B12: AC3374 (bispecific antibody, V domains shown)
VH: B1 VH with T48W
VL: B1 VL

This assay deals with CD3. In words: Octet, crude lysate. For orientation: Biolayer interferometry detects binding as a change in optical thickness at a sensor tip.
Sequence of CD3 (P07766 23-126): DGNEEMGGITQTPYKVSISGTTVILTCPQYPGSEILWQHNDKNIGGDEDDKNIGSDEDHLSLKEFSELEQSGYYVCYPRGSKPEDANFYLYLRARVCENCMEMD
B1 returned a Kd of 5.7 nM. The result for B2 reads 4.5 nM; that for B3, 20.1 nM; that for B4, 5.1 nM. As for B5, the Kd came to 4.8 nM. The result for B6 reads 1180 nM. The same measure for B7: 11.5 nM. The result for B8 reads 51 nM; that for B9, 3.8 nM; that for B10, 425 nM. The molecule B11 had a dissociation constant (Kd) of 434 nM. For the molecule B12, the dissociation constant (Kd) was found to be 34300 nM.
